Earlier results on one substance are cited in paper PMC3090270.

The series concerns the target PKA RII alpha D/D (UniProt P12367).

Sequence of PKA RII alpha D/D (P12367 2-45): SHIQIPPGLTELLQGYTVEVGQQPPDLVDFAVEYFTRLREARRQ
Sequence of D-AKAP2 AKB (O43572 623-649): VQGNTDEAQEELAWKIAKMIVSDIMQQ

For D-AKAP2 AKB (from UniProt O43572), the dissociation constant Kd (usually the equilibrium constant for the complex coming apart) was 2 nM.
